Earlier results in patent publication US20050181456A1, “Methods for determining the amount of peptide YY in blood” (Nastech Pharmaceutical Company Inc., priority 2004, published 2005).

Biological target: T1, Y2 receptor (Homo sapiens, UniProt P49146)
T1 sequence (P49146 1-381): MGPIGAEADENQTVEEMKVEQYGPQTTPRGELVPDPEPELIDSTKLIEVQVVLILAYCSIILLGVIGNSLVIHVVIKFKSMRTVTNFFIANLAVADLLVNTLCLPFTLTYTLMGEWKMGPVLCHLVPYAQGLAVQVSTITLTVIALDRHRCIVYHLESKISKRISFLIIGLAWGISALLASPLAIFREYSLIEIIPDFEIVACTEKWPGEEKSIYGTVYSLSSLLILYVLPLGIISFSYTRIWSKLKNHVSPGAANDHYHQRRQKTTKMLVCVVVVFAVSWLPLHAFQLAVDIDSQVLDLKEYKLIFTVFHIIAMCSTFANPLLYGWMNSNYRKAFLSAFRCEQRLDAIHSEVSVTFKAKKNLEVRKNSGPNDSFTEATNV
Settings: cited from earlier work

Substance: PYY fragment having only residues 22-36: PYY fragment having only residues 22-36 (ASLRHYLNLVTRQRY; listed as Homo sapiens)
- binding to the Y2 receptor: will still bind
